Test results reported in publication PMC11758000.

Target: FGFR3-TACC3 RT112 (fibroblast growth factor receptor 3 fused with transforming acidic coiled-coil-containing protein 3), 5F1Y variant, in SMA lipid particles
Experiment: mass photometry; RT112-SMALPs at 500 nM incubated on ice for 30 min with FGF1 at a 10x molar ratio, drop dilution into 50 mM HEPES, 500 mM NaCl, 0.5% v/v glycerol, 1 mM TCEP, pH 7.9, room temperature; compared with ligand-free RT112

- stoichiometry N: 2
Substance: FGFR3-TACC3 RT112 (fibroblast growth factor receptor 3 fused with transforming acidic coiled-coil-containing protein 3), 5F1Y variant, in SMA lipid particles
